# In IntAct's records for PubMed 25266290:
# B1: Ras-related protein Rab-5A (Homo sapiens), P20339 (parent)
# chain: MASRGATRPNGPNTGNKICQFKLVLLGESAVGKSSLVLRFVKGQFHEFQESTIGAAFLTQTVCLDDTTVKFEIWDTAGQERYHSLAPMYYRGAQAAIVVYDITNEESFARAKNWVKELQRQASPNIVIALSGNKADLANKRAVDFQEAQSYADDNSLLFMETSAKTSMNVNEIFMAIAKKLPKNEPQNPGANSARGRGVDLTEPTQPTRNQCCSN
# partner: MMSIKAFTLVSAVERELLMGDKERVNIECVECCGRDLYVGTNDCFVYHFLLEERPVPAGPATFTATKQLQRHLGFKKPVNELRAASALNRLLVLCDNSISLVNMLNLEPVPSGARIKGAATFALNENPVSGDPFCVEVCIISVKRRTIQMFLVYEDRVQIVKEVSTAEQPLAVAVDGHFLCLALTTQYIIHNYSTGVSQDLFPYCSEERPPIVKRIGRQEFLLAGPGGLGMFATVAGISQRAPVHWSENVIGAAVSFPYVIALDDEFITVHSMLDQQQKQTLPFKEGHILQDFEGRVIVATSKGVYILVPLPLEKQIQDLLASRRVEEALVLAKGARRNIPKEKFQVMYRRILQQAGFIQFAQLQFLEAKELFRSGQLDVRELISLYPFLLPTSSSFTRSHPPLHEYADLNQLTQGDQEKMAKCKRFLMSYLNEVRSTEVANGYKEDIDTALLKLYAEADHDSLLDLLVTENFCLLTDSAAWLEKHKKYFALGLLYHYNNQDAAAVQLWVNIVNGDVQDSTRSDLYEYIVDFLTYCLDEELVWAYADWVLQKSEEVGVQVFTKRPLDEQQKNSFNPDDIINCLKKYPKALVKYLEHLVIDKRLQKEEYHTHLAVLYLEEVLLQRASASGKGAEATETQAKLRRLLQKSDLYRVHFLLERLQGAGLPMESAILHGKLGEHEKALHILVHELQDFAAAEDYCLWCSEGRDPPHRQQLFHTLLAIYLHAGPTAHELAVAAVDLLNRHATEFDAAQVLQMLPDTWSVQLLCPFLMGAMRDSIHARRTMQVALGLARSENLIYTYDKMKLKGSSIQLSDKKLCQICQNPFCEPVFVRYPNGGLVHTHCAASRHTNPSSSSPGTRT
# Variants of: B1
# Details: with tgfa1_human TGFBRAP1, Q8WUH2
row,effect of a mutation on the interaction,Variant
1,decreasing interaction,S34N
